Experimental data from paper PMC8807876.

Target: TopBP1 (UniProt Q92547)
Assay: anti-GFP nanobody IP, TopBP1 immunoblot
Settings: reference: wild type; sites T969,S1001

binding against the reference: lost
Substance: Treslin/TICRR (from UniProt Q7Z2Z1) 2PM (T969A/S1001A)
